From the supplement of paper PMC12042874
± gives the uncertainty stated by the source.

Assay: amyloid nucleation score (Sup35N fusion, yeast selection) (log enrichment); library NNK1; higher = more nucleation; inactive = no reads after selection
Method in brief: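 On medium lacking adenine and uracil, psi-negative yeast expressing peptides of 20 random codons fused to Sup35N were grown 7 days at 30°C after a 24-hour induction with 100 μM copper sulfate. Illumina sequencing of input and output plasmid inserts gave the reads, and sequences under 100 input reads were excluded. The nucleation score is the DiMSum log enrichment of output over input reads, centred on the mode score of non-aggregating sequences.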

Substance	amyloid nucleation score
MRFAVTD	-0.146 ± 0.23
MRFVIQVLYTGGTKKSSHLM	1.16 ± 0.79
MRISFAITCTVTN	0.248 ± 0.28
MRITILYYLGKQNRSFWWFC	0.108 ± 0.35
MRKTFDAVLNAFFCKALFCY	0.759 ± 0.39
MRSIH	-0.11 ± 0.74
MRSKREMSFMTHEILVCNDA	0.509 ± 0.31
MRVLDTNSGLMTITPFPVHS	-0.574 ± 0.67
MRVVPHVWLTWHEATVVLQV	0.807 ± 0.28
MSALTGQKPLVMVGGLCAVG	0.449 ± 0.55
MSKKMQRPRVAAVGFERFGT	-0.174 ± 0.9
MSLMSRDVVMHIGMSWYSRG	4.21 ± 0.12
MSMLLDSDCLRYFSQEVFWV	-0.742 ± 1.4
MSRRWV	-1.01 ± 0.79
MSSNMLSEKWASGTEHVGVV	-0.657 ± 0.69
MTALFGRVSG	-0.134 ± 1.1
MTEQAQ	0.286 ± 1.4
MTGQTCRFEGSFRFMERCRK	0.43 ± 1
MTRVCL	-0.035 ± 0.62
MTSYGSFRKATWNDWISNMS	-0.393 ± 0.41
MTWMPFGPHTAGMMGHLYFG	-0.398 ± 0.64
MTYDGCNSCKHLKSGKLRWC	0.117 ± 0.29

Substance	amyloid nucleation score
MVFLGCSGLVCERCAGWLAR	5.58 ± 0.11
MVHKWVIFFNRTVCRLMLPV	0.589 ± 0.37
MVHWVILYAADFPIETLNK	inactive
MVRGQVNPNSFNARWY	inactive
MVSNNNLYPF	inactive
MVVFDRRGLSYPVS	0.556 ± 0.52
MVVQRLF	-0.54 ± 0.78
MWELRFVLCLMIHEFRRWHE	-0.056 ± 0.64
MWGTCSYSYLDSCRVTLFMR	2.06 ± 0.2
MWYLMRTLTLIRFFVSPVGS	0.154 ± 0.31
MWYVHHCQGSVTLLARGRLC	0.886 ± 1
MYPTLRTRPTCIYVR	1.19 ± 0.53
MYRYLPNSTLLSRVLDTSSY	inactive
MYTSRQNSARNRKLNSIAGF	-0.721 ± 0.77
MYYCD	-0.35 ± 0.54
NACFRYKAKMDRMSTRGANS	1.88 ± 0.39
NAVTFLHIVLRENNHGRMHK	6.21 ± 0.073
NCACC	6.12 ± 0.065
NCFLCSVARNNYVLRCPSSN	6.07 ± 0.067
NCFRLILFVLSDHRQWCFES	-1.78 ± 1.7
NCGTVHGHADGSYVCDMGSR	-0.022 ± 0.98
NCSGVFKGKSLTSCGT	-0.038 ± 0.21

Substance	amyloid nucleation score
NCWFCNRQNSLSGKELYVIR	inactive
NCWQLYLKHSVPRRIQRGYA	-0.577 ± 0.48
NCYLLFFCRLSSLSYAYQVY	-0.815 ± 1.2
NCYMIFVKRLPLC	0.023 ± 0.41
NDWRCSKGLLGFWRGGTRQA	0.48 ± 0.28
NEFTFSYKYGRHSGRSLKRR	2.32 ± 0.28
NESDI	0.392 ± 0.26
NFAPRYLAI	0.295 ± 0.34
NFCDSSGI	-0.912 ± 1.2
NFCEVYGANIN	inactive
NFLESSFYFFALVSASLSFN	0.527 ± 0.25
NFPKYGFQGVFRTPMWYGFF	-1.63 ± 1.1
NFRLCLWSDAGLIGKAVFGY	0.718 ± 0.39
NFTIDKRNAMLCVGRLYRSF	1.05 ± 0.5
NFTNFW	-0.732 ± 0.56
NFYTFFQTRGFLSLSACALR	-1.12 ± 2.7
NGFCEVDIVLFRVEVVAACV	-0.965 ± 2.4
NGKSAQ	4.05 ± 0.064
NGNNQYRPVCDYSYYRRSCS	-0.234 ± 1.6
NGPLHSYYTVWGCMYCLLML	3.06 ± 0.23
NGRTLINQYESLEATGICTV	0.684 ± 0.78
NGTIHMPLVWGYKLDRPRGW	0.969 ± 0.7

Substance	amyloid nucleation score
NGYQCYGILCAFVTWTVYFW	1.26 ± 0.79
NHALYDIWLIALSSRLYCQN	0.342 ± 0.4
NHGLYTVFWGCCPWFSQNLF	7.894 ± 0.073
NHGWVLNSNFYIPRKYSLVR	-1.25 ± 0.48
NIEGRVYRIDSAGGPCIYVL	-0.621 ± 0.5
NIFIFTVSHKPNY	7.926 ± 0.057
NIGMGSTLFLGRMSEQCWCS	2.32 ± 0.14
NIGMRDTGVLLDKLCQV	-0.594 ± 0.65
NILDMCLKRYIFMLE	1.44 ± 0.37
NILGIAHTIGCLLLTFCCTL	inactive
NIRKEGFFRFSPSTADTTCR	0.618 ± 0.71
NISSQEPISRAATSRKVAGQ	0.466 ± 1.4
NITFEVINQRCD	3.38 ± 0.12
NIVDVKPQKRETIRWLWIIF	-0.232 ± 0.2
NKIGRAFVTSYGLRIHSGAG	-0.32 ± 0.76
NKKNSSLNHSL	-0.077 ± 0.43
NKQETSKWLWECGDCSRYLY	1.18 ± 0.41
NKSNSLYGSLKWGDRAYSSY	-1.31 ± 0.71
NKWLRCARGTVHWYAAIVGH	-0.942 ± 1.1
